From paper PMC7296103, “Live Cell Imaging Demonstrates Multiple Routes Toward a STAT1 Gain-of-Function Phenotype” (Frontiers in Immunology, 2020)
Substitutions are numbered along the chain they refer to. Names and notes keep the numbering of the source. Like-named read-outs stand apart in the source and are kept apart here.

B1: STAT1-GFP wild type, P42224 1-750 (natural protein)
chain: MSQWYELQQLDSKFLEQVHQLYDDSFPMEIRQYLAQWLEKQDWEHAANDVSFATIRFHDLLSQLDDQYSRFSLENNFLLQHNIRKSKRNLQDNFQEDPIQMSMIIYSCLKEERKILENAQRFNQAQSGNIQSTVMLDKQKELDSKVRNVKDKVMCIEHEIKSLEDLQDEYDFKCKTLQNREHETNGVAKSDQKQEQLLLKKMYLMLDNKRKEVVHKIIELLNVTELTQNALINDELVEWKRRQQSACIGGPPNACLDQLQNWFTIVAESLQQVRQQLKKLEELEQKYTYEHDPITKNKQVLWDRTFSLFQQLIQSSFVVERQPCMPTHPQRPLVLKTGVQFTVKLRLLVKLQELNYNLKVKVLFDKDVNERNTVKGFRKFNILGTHTKVMNMEESTNGSLAAEFRHLQLKEQKNAGTRTNEGPLIVTEELHSLSFETQLCQPGLVIDLETTSLPVVVISNVSQLPSGWASILWYNMLVAEPRNLSFFLTPPCARWAQLSEVLSWQFSSVTKRGLNVDQLNMLGEKLLGPNASPDGLIPWTRFCKENINDKNFPFWLWIESILELIKKHLLPLWNDGCIMGFISKERERALLKDQQPGTFLLRFSESSREGAITFTWVERSQNGGEPDFHAVEPYTKKELSAVTFPDIIRNYKVMAAENIPENPLKYLYPNIDKDHAFGKYYSRPKEAPEPMELDGPKGTGYIKTELISVSEVHPSRLQTTDNLLPMSPEEFDEVSRIVGSVEFDSMMNTV
B2: STAT1-GFP E411A (natural protein, UniProt P42224 1-750, looked up)
chain: B1 chain with E411A
notes: Artificial mutation, not reported in patients; also called STAT1E411A-eGFP; source: measured in living cells; not shown: eGFP, C-terminal, kept
B3: STAT1-GFP N574I (natural protein, UniProt P42224 1-750, looked up)
chain: B1 chain with N574I
notes: STAT1 with the patient gain-of-function mutation N574I (linker domain); Mutation reported in patients; also called STAT1N574I-eGFP; N571I (as printed in some places); source: measured in living cells; not shown: eGFP, C-terminal, kept
B4: STAT1-GFP R321S (natural protein, UniProt P42224 1-750, looked up)
chain: B1 chain with R321S
notes: Mutation reported in patients; also called STAT1R321S-eGFP; source: measured in living cells; not shown: eGFP, C-terminal, kept
B5: STAT1-GFP T419R (natural protein, UniProt P42224 1-750, looked up)
chain: B1 chain with T419R
notes: Mutation reported in patients; also called STAT1T419R-eGFP; source: measured in living cells; not shown: eGFP, C-terminal, kept
B6: STAT1-GFP R274W (natural protein, UniProt P42224 1-750, looked up)
chain: B1 chain with R274W
notes: STAT1 with the patient gain-of-function mutation R274W (coiled-coil domain); Mutation reported in patients; also called STAT1R274W-eGFP; source: measured in living cells; not shown: eGFP, C-terminal, kept
B7: STAT1-GFP Y701A (natural protein, UniProt P42224 1-750, looked up)
chain: B1 chain with Y701A
notes: Non-clinical control; also called STAT1Y701A-eGFP; source: measured in living cells; not shown: eGFP, C-terminal, kept

How the values were obtained:
[1] = molecular target: T1, STAT1-GFP wild type, P42224; assay: raster image correlation spectroscopy (RICS), molecular brightness; living U3A cells after IFNγ (1 U/μl, 1 h), 37°C; nucleus; brightness as fold of cytoplasmic STAT1 WT; dimers to tetramers; details: remark: other sources report otherwise
T1 chain: B1 chain

[2] = molecular target: T1, STAT1-GFP wild type, P42224; assay: raster image correlation spectroscopy (RICS), molecular brightness; living U3A cells after IFNγ (1 U/μl, 1 h), 37°C; cytoplasm; brightness as fold of cytoplasmic STAT1 WT; details: remark: other sources report otherwise
[3] = molecular target: T1, STAT1-GFP wild type, P42224; assay: raster image correlation spectroscopy (RICS), molecular brightness; living U3A cells, unstimulated, 37°C; cytoplasm and nucleus; brightness of STAT1-GFP compared with monomeric GFP; details: remark: other sources report otherwise
[4] = molecular target: the molecule itself; assay: raster image correlation spectroscopy (RICS), molecular brightness; living U3A cells after IFNγ (1 U/μl, 1 h), 37°C; nucleus; brightness as fold of cytoplasmic STAT1 WT; dimers to tetramers
[5] = molecular target: the molecule itself; assay: raster image correlation spectroscopy (RICS), molecular brightness; living U3A cells after IFNγ (1 U/μl, 1 h), 37°C; cytoplasm; brightness as fold of cytoplasmic STAT1 WT
[6] = molecular target: the molecule itself; assay: raster image correlation spectroscopy (RICS), molecular brightness; living U3A cells after IFNγ (1 U/μl, 1 h), 37°C; nucleus; brightness as fold of cytoplasmic STAT1 WT; dimers to tetramers; remark: listed apart in the source

Binder	stoichiometry N [4]	increase of nuclear brightness compared to cytoplasmic STAT1 WT [4] [%]	also measured
B1			relative brightness (fold of cytoplasmic STAT1 WT) [1]: 1.32 A.U.; stoichiometry N [1]: 4; relative brightness (fold of cytoplasmic STAT1 WT) [2]: 1 A.U.; stoichiometry N [3]: 2
B2	2		
B3	4	7	relative brightness (fold of cytoplasmic STAT1 WT) [5]: 0.74 A.U.
B4	4	11	relative brightness (fold of cytoplasmic STAT1 WT) [5]: 0.69 A.U.
B5			stoichiometry N [6]: 2
B6	4	17	
B7	2		
